Source: patent publication US20060257938A1, “Method of screening for drugs that block ligand binding to a lipid binding protein” (priority 2005, published 2006)

Columns and labels:
Assay type in all cases: binding
Settings in all cases: response relative to ADIFAB2
[1] = Probe fluorescence ratio response to arachidonic acid relative to ADIFAB2
Outline: (§1)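 Each fatty acid's response was expressed relative to ADIFAB2, the rI-FABP-L72A probe, as ΔR/ΔRreference. ΔR is the change in the background-corrected two-wavelength intensity ratio R=Fλ1/Fλ2 from its analyte-free baseline R0. Emission was read near about 420-480 nm for unbound and about 495-580 nm for FFA-bound probe.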

[2] = Probe fluorescence ratio response to linolenic acid relative to ADIFAB2
Outline: as §1

[3] = Probe fluorescence ratio response to linoleic acid relative to ADIFAB2
Outline: as §1

[4] = Probe fluorescence ratio response to oleic acid relative to ADIFAB2
Outline: as §1

[5] = Probe fluorescence ratio response to palmitic acid relative to ADIFAB2
Outline: as §1

| Molecule | DR/DR AA ([1]; Arachidonic acid) | DR/DR LNA [2] | DR/DR LA [3] | DR/DR OA [4] | DR/DR PA [5] | DR/DR AA ([1]; arachidonic acid) |
| --- | --- | --- | --- | --- | --- | --- |
| 47P1, L72A (protein, listed as Rattus norvegicus, PEPTIDE (1)...(131) wild-type rat intestinal fatty acid binding protein) AFDGTWKVDRNENYEKFMEKMGINVVKRKLGAHDNLKLTITQEGNKPTVKESSNFRNIDVVFELGVDFAYSAADGTELTGTWTMEGNKLVGKFKRVDNGKELIAVREISGNELIQTYTYEGVEAKRIFKKE | 0.54 | 0.61 | 0.59 | 0.57 | 0.26 |  |
| 102T, 72A (protein, listed as Rattus norvegicus, PEPTIDE (1)...(131) wild-type rat intestinal fatty acid binding protein) AFDGTWKVDRNENYEKFMEKMGINVVKRKLGAHDNLKLTITQEGNKFTVKESSNFRNIDVVFELGVDFAYSAADGTELTGTWTMEGNKLVGKFKRVDNGKETIAVREISGNELIQTYTYEGVEAKRIFKKE |  | 0.24 | 0.26 | 0.26 | 0.12 | 0.21 |
| 47V3, L72A (protein, listed as Rattus norvegicus, PEPTIDE (1)...(131) wild-type rat intestinal fatty acid binding protein) AFDGTWKVDRNENYEKFMEKMGINVVKRKLGAHDNLKLTITQEGNKVTVKESSNFRNIDVVFELGVDFAYSAADGTELTGTWTMEGNKLVGKFKRVDNGKELIAVREISGNELIQTYTYEGVEAKRIFKKE | 1.00 | 1.01 | 1.04 | 1.01 | 0.78 |  |
| 49C1, 72A (protein, listed as Rattus norvegicus, PEPTIDE (1)...(131) wild-type rat intestinal fatty acid binding protein) AFDGTWKVDRNENYEKFMEKMGINVVKRKLGAHDNLKLTITQEGNKFTCKESSNFRNIDVVFELGVDFAYSAADGTELTGTWTMEGNKLVGKFKRVDNGKELIAVREISGNELIQTYTYEGVEAKRIFKKE | −0.13 | −0.18 | −0.21 | −0.20 | −0.18 |  |
| 47T1, L72A (protein, listed as Rattus norvegicus, PEPTIDE (1)...(131) wild-type rat intestinal fatty acid binding protein) AFDGTWKVDRNENYEKFMEKMGINVVKRKLGAHDNLKLTITQEGNKTTVKESSNFRNIDVVFELGVDFAYSAADGTELTGTWTMEGNKLVGKFKRVDNGKELIAVREISGNELIQTYTYEGVEAKRIFKKE | 0.68 | 0.74 | 0.77 | 0.74 | 0.46 |  |
| 49I1, 72A (protein, listed as Rattus norvegicus, PEPTIDE (1)...(131) wild-type rat intestinal fatty acid binding protein) AFDGTWKVDRNENYEKFMEKMGINVVKRKLGAHDNLKLTITQEGNKFTIKESSNFRNIDVVFELGVDFAYSAADGTELTGTWTMEGNKLVGKFKRVDNGKELIAVREISGNELIQTYTYEGVEAKRIFKKE | 1.80 | 1.82 | 1.84 | 1.80 | 1.16 |  |
| 49G1, 72A (protein, listed as Rattus norvegicus, PEPTIDE (1)...(131) wild-type rat intestinal fatty acid binding protein) AFDGTWKVDRNENYEKFMEKMGINVVKRKLGAHDNLKLTITQEGNKFTGKESSNFRNIDVVFELGVDFAYSAADGTELTGTWTMEGNKLVGKFKRVDNGKELIAVREISGNELIQTYTYEGVEAKRIFKKE | 1.26 | 1.25 | 1.29 | 1.15 | 0.64 |  |
| 47R3, L72A (protein, listed as Rattus norvegicus, PEPTIDE (1)...(131) wild-type rat intestinal fatty acid binding protein) AFDGTWKVDRNENYEKFMEKMGINVVKRKLGAHDNLKLTITQEGNKRTVKESSNFRNIDVVFELGVDFAYSAADGTELTGTWTMEGNKLVGKFKRVDNGKELIAVREISGNELIQTYTYEGVEAKRIFKKE | 0.56 | 0.61 | 0.64 | 0.62 | 0.30 |  |
| 49D1, 72A (protein, listed as Rattus norvegicus, PEPTIDE (1)...(131) wild-type rat intestinal fatty acid binding protein) AFDGTWKVDRNENYEKFMEKMGINVVKRKLGAHDNLKLTITQEGNKFTDKESSNFRNIDVVFELGVDFAYSAADGTELTGTWTMEGNKLVGKFKRVDNGKELIAVREISGNELIQTYTYEGVEAKRIFKKE | 0.31 | 0.30 | 0.32 | 0.32 | 0.16 |  |
| 47S1, L72A (protein, listed as Rattus norvegicus, PEPTIDE (1)...(131) wild-type rat intestinal fatty acid binding protein) AFDGTWKVDRNENYEKFMEKMGINVVKRKLGAHDNLKLTITQEGNKSTVKESSNFRNIDVVFELGVDFAYSAADGTELTGTWTMEGNKLVGKFKRVDNGKELIAVREISGNELIQTYTYEGVEAKRIFKKE | 0.61 | 0.69 | 0.66 | 0.64 | 0.34 |  |
| 49A1, 72A (protein, listed as Rattus norvegicus, PEPTIDE (1)...(131) wild-type rat intestinal fatty acid binding protein) AFDGTWKVDRNENYEKFMEKMGINVVKRKLGAHDNLKLTITQEGNKFTAKESSNFRNIDVVFELGVDFAYSAADGTELTGTWTMEGNKLVGKFKRVDNGKELIAVREISGNELIQTYTYEGVEAKRIFKKE | 1.72 | 1.68 | 1.72 | 1.60 | 0.79 |  |
| 102S, 72A (protein, listed as Rattus norvegicus, PEPTIDE (1)...(131) wild-type rat intestinal fatty acid binding protein) AFDGTWKVDRNENYEKFMEKMGINVVKRKLGAHDNLKLTITQEGNKFTVKESSNFRNIDVVFELGVDFAYSAADGTELTGTWTMEGNKLVGKFKRVDNGKESIAVREISGNELIQTYTYEGVEAKRIFKKE |  | 0.43 | 0.45 | 0.43 | 0.18 | 0.39 |
| 49F1, 72A (protein, listed as Rattus norvegicus, PEPTIDE (1)...(131) wild-type rat intestinal fatty acid binding protein) AFDGTWKVDRNENYEKFMEKMGINVVKRKLGAHDNLKLTITQEGNKFTFKESSNFRNIDVVFELGVDFAYSAADGTELTGTWTMEGNKLVGKFKRVDNGKELIAVREISGNELIQTYTYEGVEAKRIFKKE | 1.18 | 1.18 | 1.14 | 1.14 | 0.75 |  |
| 49H1, 72A (protein, listed as Rattus norvegicus, PEPTIDE (1)...(131) wild-type rat intestinal fatty acid binding protein) AFDGTWKVDRNENYEKFMEKMGINVVKRKLGAHDNLKLTITQEGNKFTHKESSNFRNIDVVFELGVDFAYSAADGTELTGTWTMEGNKLVGKFKRVDNGKELIAVREISGNELIQTYTYEGVEAKRIFKKE | 1.47 | 1.54 | 1.58 | 1.39 | 0.75 |  |
| 47Y2, L72A (protein, listed as Rattus norvegicus, PEPTIDE (1)...(131) wild-type rat intestinal fatty acid binding protein) AFDGTWKVDRNENYEKFMEKMGINVVKRKLGAHDNLKLTITQEGNKYTVKESSNFRNIDVVFELGVDFAYSAADGTELTGTWTMEGNKLVGKFKRVDNGKELIAVREISGNELIQTYTYEGVEAKRIFKKE | 1.37 | 1.40 | 1.40 | 1.42 | 1.17 |  |
